The target of experiment [1] is soluble β4Gal-T2 (amino acid residues 31-372 of human UDP-galactose: β-N-acetylglucosamine β-1,4-galactosyltransferase, β4Gal-T2) (human) (UniProt O60909). Briefly: cell-based or functional assay.
Experiment [2] concerns the target Bovine milk β1,4Gal-transferase (Sigma), mainly representing β4Gal-T1 (bovine) (UniProt P08037). Briefly: cell-based or functional assay.

Chain of Bovine milk β1,4Gal-transferase (Sigma), mainly representing β4Gal-T1 (bovine) (P08037 78-402 limits assumed): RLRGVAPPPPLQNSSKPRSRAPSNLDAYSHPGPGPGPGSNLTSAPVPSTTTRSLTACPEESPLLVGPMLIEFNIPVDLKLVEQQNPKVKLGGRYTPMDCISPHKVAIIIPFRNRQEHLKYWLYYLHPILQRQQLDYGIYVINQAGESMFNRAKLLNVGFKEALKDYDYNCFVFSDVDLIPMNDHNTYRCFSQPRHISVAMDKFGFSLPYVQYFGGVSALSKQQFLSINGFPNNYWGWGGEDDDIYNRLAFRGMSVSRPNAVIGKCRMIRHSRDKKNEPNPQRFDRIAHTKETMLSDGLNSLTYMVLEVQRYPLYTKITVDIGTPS
Chain of soluble β4Gal-T2 (amino acid residues 31-372 of human UDP-galactose: β-N-acetylglucosamine β-1,4-galactosyltransferase, β4Gal-T2) (human) (O60909 31-372): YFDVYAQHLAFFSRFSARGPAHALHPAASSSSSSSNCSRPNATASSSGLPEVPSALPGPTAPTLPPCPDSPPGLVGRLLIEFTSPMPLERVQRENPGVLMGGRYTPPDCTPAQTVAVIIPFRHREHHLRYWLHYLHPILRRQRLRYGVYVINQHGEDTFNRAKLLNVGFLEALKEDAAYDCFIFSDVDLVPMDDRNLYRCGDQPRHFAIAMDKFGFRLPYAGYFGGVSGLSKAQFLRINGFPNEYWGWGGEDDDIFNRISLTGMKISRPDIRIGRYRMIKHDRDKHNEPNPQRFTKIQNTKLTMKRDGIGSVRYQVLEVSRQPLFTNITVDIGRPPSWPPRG

Turning to α-lactalbumin, the concentration of a-lactalbumin to achieve maximum activity with Glc was 0.4 mg/mL in experiment [1] and 0.1 mg/mL in experiment [2].

Source of the values: patent US20030013173A1.
